B1: SEQ ID NO: 318 (designed binder)
chain: MGSWVEFWFRLEAIDSRLWALGGSEAELAAFEKEIAAFESELQAYKGKGNPEVEWLREEAAAIREDLQAYRHN
notes: D domain, on phage
B2: SEQ ID NO: 316 (designed binder)
chain: MGSWTEFHDRLEAIDDRLWALGGSEAELAAFEKEIAAFESELQAYKGKGNPEVEYLREEAAQIRWELQAYRHN
notes: D domain, on phage
B3: SEQ ID NO: 317 (designed binder)
chain: MGSWAEFEDRLWAIEDRLWALGGSEAELAAFEKEIAAFESELQAYKGKGNPEVEYLREEAAAIRFELQAYRHN
notes: D domain, on phage
B4: SEQ ID NO: 319 (designed binder)
chain: MGSWVEFWQRLEAIESRLWALGGSEAELAAFEKEIAAFESELQAYKGKGNPEVEFLREEAAEIRWELQAYRHN
notes: D domain, on phage
B5: SEQ ID NO: 320 (designed binder)
chain: MGSWSEFWQRLEAIEDRLWALGGSEAELAAFEKEIAAFESELQAYKGKGNPEVEWLRENAAMIRDELQAYRHN
notes: D domain, on phage
B6: SEQ ID NO: 321 (designed binder)
chain: MGSWSEFITRLEAIDDRLWALGGSEAELAAFEKEIAAFESELQAYKGKGNPEVEILREEAAEIRQHLQAYRHN
notes: D domain, on phage
B7: SEQ ID NO: 322 (designed binder)
chain: MGSWYEFETRLEAIYDRLWALGGSEAELAAFEKEIAAFESELQAYKGKGNPEVELLRVEAAEIREDLQAYRHN
notes: D domain, on phage
B8: SEQ ID NO: 328 (designed binder)
chain: MGSWVEFHERLEAIEDRLMALGGSEAELAAFEKEIAAFESELQAYKGKGNPEVEYLREDAAFIRQLLQAYRHN
notes: D domain, on phage
B9: SEQ ID NO: 329 (designed binder)
chain: MGSWVEFHDRLEAIEDRLYALGGSEAELAAFEKEIAAFESELQAYKGKGNPEVEWLREDAAYIRSILQAYRHN
notes: D domain, on phage
B10: SEQ ID NO: 330 (designed binder)
chain: MGSWIEFYDRLEAIYDRLDALGGSEAELAAFEKEIAAFESELQAYKGKGNPEVEWLREDAAFIRSWLQAYRHN
notes: D domain, on phage
B11: SEQ ID NO: 331 (designed binder)
chain: MGSWVEFDQRLEAIYDRLYALGGSEAELAAFEKEIAAFESELQAYKGKGNPEVEWLREDAAQIRKWLQAYRHN
notes: D domain, on phage
B12: SEQ ID NO: 332 (designed binder)
chain: MGSWVEFHDRLEAIEDRLLALGGSEAELAAFEKEIAAFESELQAYKGKGNPEVEDLREYAAGIRWFLQAYRHN
notes: D domain, on phage
B13: SEQ ID NO: 363 (designed binder)
chain: MGSWVEFDMRLSAIWERLIALGGSEAELAAFEKEIAAFESELQAYKGKGNPEVEWLREDAAEIREFLQAYRHN
notes: D domain, on phage
B14: SEQ ID NO: 364 (designed binder)
chain: MGSWVEFDQRLDAIYERLYALGGSEAELAAFEKEIAAFESELQAYKGKGNPEVEWLRDEAAEIREHLQAYRHN
notes: D domain, on phage
B15: SEQ ID NO: 367 (designed binder)
chain: MGSWVEFYSRLDAIEDRLWALGGSEAELAAFEKEIAAFESELQAYKGKGNPEVEWLRIAAASIREDLQAYRHN
notes: D domain, on phage
B16: SEQ ID NO: 368 (designed binder)
chain: MGSWYEFYERLDAIEERLWALGGSEAELAAFEKEIAAFESELQAYKGKGNPEVEVLRDWAAWIREDLQAYRHN
notes: D domain, on phage
B17: SEQ ID NO: 369 (designed binder)
chain: MGSWFEFDDRLWAIENRLWALGGSEAELAAFEKEIAAFESELQAYKGKGNPEVEVLRDNAAWIREILQAYRHN
notes: D domain, on phage
B18: SEQ ID NO: 370 (designed binder)
chain: MGSWYEFWDRLDALEDRLWALGGSEAELAAFEKEIAAFESELQAYKGKGNPEVEYLRDSAAFIREELQAYRHN
notes: D domain, on phage
B19: SEQ ID NO: 371 (designed binder)
chain: MGSWMEFVDRLDAIESRLWALGGSEAELAAFEKEIAAFESELQAYKGKGNPEVEWLRIEAAFIREELQAYRHN
notes: D domain, on phage
B20: SEQ ID NO: 372 (designed binder)
chain: MGSWDEFVDRLWAIEERLWALGGSEAELAAFEKEIAAFESELQAYKGKGNPEVEELRIQAAIIREALQAYRHN
notes: D domain, on phage
B21: SEQ ID NO: 379 (designed binder)
chain: MGSWFEFWDRLEAIWERLDALGGSEAELAAFEKEIAAFESELQAYKGKGNPEVEELRREAAIIREDLQAYRHN
notes: D domain, on phage
B22: SEQ ID NO: 380 (designed binder)
chain: MGSWFEFEDRLEAIYQRLDALGGSEAELAAFEKEIAAFESELQAYKGKGNPEVEWLRDEAAWIRSDLQAYRHN
notes: D domain, on phage
B23: SEQ ID NO: 381 (designed binder)
chain: MGSWFEFHDRLWAIDERLWALGGSEAELAAFEKEIAAFESELQAYKGKGNPEVEILREEAADIRLDLQAYRHN
notes: D domain, on phage
B24: SEQ ID NO: 382 (designed binder)
chain: MGSWYEFEDRLWAIDNRLWALGGSEAELAAFEKEIAAFESELQAYKGKGNPEVEELRVHAADIRDDLQAYRHN
notes: D domain, on phage
B25: SEQ ID NO: 383 (designed binder)
chain: MGSWFEFQDRLWAIDNRLWALGGSEAELAAFEKEIAAFESELQAYKGKGNPEVEELRDHAAMIRWELQAYRHN
notes: D domain, on phage
B26: SEQ ID NO: 397 (designed binder)
chain: MGSWMEFEERLWAIDSRLWALGGSEAELAAFEKEIAAFESELQAYKGKGNPEVEWLRSEAAWIRMELQAYRHN
notes: D domain, on phage
B27: SEQ ID NO: 323 (designed binder)
chain: MGSWTEFYYRLEAIEDRLWALGGSEAELAAFEKEIAAFESELQAYKGKGNPEVEFLRVEAANIRDMLQAYRHN
notes: D domain, on phage
B28: SEQ ID NO: 409 (designed binder)
chain: MGSWVEFHMRLDAIYERLDALGGSEAELAAFEKEIAAFESELQAYKGKGNPEVEWLRTAAANIRVELQAYRHN
notes: D domain, on phage
B29: SEQ ID NO: 324 (designed binder)
chain: MGSWYEFVIRLEAIEDRLWALGGSEAELAAFEKEIAAFESELQAYKGKGNPEVEVLRWYAADIRHELQAYRHN
notes: D domain, on phage
B30: SEQ ID NO: 325 (designed binder)
chain: MGSWTEFSIRLEAIYDRLVALGGSEAELAAFEKEIAAFESELQAYKGKGNPEVEVLRTYAANIRHELQAYRHN
notes: D domain, on phage
B31: SEQ ID NO: 326 (designed binder)
chain: MGSWTEFSIRLEAIYDRLVALGGSEAELAAFEKEIAAFESELQAYKGKGNPEVEVLRTYAAFIRHELQAYRHN
notes: D domain, on phage
B32: SEQ ID NO: 402 (designed binder)
chain: MGSWSEFNMRLDAIYERLTALGGSEAELAAFEKEIAAFESELQAYKGKGNPEVEWLRHSAARIRLELQAYRHN
notes: D domain, on phage

Molecular target: T1, recombinant human CD123-Fc (human, UniProt P26951 19-305)
T1 construct: not shown: Fc part of CD123-Fc
T1 sequence: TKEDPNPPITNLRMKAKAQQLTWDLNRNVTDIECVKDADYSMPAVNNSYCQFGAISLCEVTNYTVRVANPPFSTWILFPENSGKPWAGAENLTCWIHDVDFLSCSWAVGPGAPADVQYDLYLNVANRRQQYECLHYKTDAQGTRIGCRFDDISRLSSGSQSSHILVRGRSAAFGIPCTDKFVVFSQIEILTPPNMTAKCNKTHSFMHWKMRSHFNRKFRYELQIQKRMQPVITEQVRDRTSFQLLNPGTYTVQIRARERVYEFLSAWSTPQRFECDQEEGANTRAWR
Assay: phage ELISA, captured CD123-Fc
Protocol: Individual colonies containing phagemid from BCMA panning output were picked and phage were rescued in 96-well format using VCSM13 helper phage following standard protocols. To assay target binding by ELISA, 96-well plates were coated with 1.3 microg/ml goat anti-human IgG1-Fc antibody followed by incubation with 5 nM of recombinant human target (BCMA-Fc, CD123-Fc, AFP, or AFP123) or IgG1-Fc. 50 microl of rescued phage diluted 5× in ELISA blocking buffer was then added to each well. Binding was detected using an HRP-conjugated anti-M13 antibody and the ELISA ratio for each sequence is reported as the absorbance at 450 nm for target (i.e., BCMA-Fc, CD123-Fc, AFP, or AFP123) divided by that for IgG1-Fc averaged across all screened wells containing that clone.

Going from B1 to B2, the ELISA_avg rises from 3.2 ratio A450 target/IgG1-Fc to 5.8 ratio A450 target/IgG1-Fc.

Compared with B3, B4 is higher in ELISA_avg: 6.2 ratio A450 target/IgG1-Fc for the first, 7.7 ratio A450 target/IgG1-Fc for the second.

Compared with B5, B6 is lower in ELISA_avg: 4.7 ratio A450 target/IgG1-Fc for the first, 3.3 ratio A450 target/IgG1-Fc for the second.

Compared with B7, B8 is higher in ELISA_avg: 3.2 ratio A450 target/IgG1-Fc for the first, 3.7 ratio A450 target/IgG1-Fc for the second.

Compared with B9, B10 is higher in ELISA_avg: 4.6 ratio A450 target/IgG1-Fc for the first, 7.5 ratio A450 target/IgG1-Fc for the second.

Compared with B11, B12 is lower in ELISA_avg: 5.1 ratio A450 target/IgG1-Fc for the first, 3.3 ratio A450 target/IgG1-Fc for the second.

First: B13
Second: B14
The ELISA_avg of the first is lower: 3.3 ratio A450 target/IgG1-Fc for the first, 10.5 ratio A450 target/IgG1-Fc for the second.

Going from B15 to B16, the ELISA_avg falls from 9.4 ratio A450 target/IgG1-Fc to 8.4 ratio A450 target/IgG1-Fc.

Going from B17 to B18, the ELISA_avg rises from 4.2 ratio A450 target/IgG1-Fc to 9.7 ratio A450 target/IgG1-Fc.

First: B19
Second: B20
The ELISA_avg of the first is lower: 5.8 ratio A450 target/IgG1-Fc for the first, 6 ratio A450 target/IgG1-Fc for the second.

Compared with B21, B22 is lower in ELISA_avg: 10.3 ratio A450 target/IgG1-Fc for the first, 5.5 ratio A450 target/IgG1-Fc for the second.

Going from B23 to B24, the ELISA_avg rises from 3.5 ratio A450 target/IgG1-Fc to 4.9 ratio A450 target/IgG1-Fc.

B25 and B26 are the same in ELISA_avg: 3.2 ratio A450 target/IgG1-Fc for the first, 3.2 ratio A450 target/IgG1-Fc for the second.

First: B27
Second: B28
The ELISA_avg of the first is lower: 7.5 ratio A450 target/IgG1-Fc for the first, 9.1 ratio A450 target/IgG1-Fc for the second.

Going from B29 to B30, the ELISA_avg rises from 6.4 ratio A450 target/IgG1-Fc to 11.9 ratio A450 target/IgG1-Fc.

First: B31
Second: B32
The ELISA_avg of the first is lower: 10.2 ratio A450 target/IgG1-Fc for the first, 13.7 ratio A450 target/IgG1-Fc for the second.

Source: patent US20230125550A1 (ARCELLX, published 2023)
